Experimental data published in patent US9512196B2, “Short-form human MD-2 as a negative regulator of toll-like receptor 4 signaling” (Cedars-Sinai Medical Center, priority 2008, dated 2016).
Values belong to the molecule of their own block, whether it stands above or below them.

What was measured:
MD-2 = target: T1, MD-2 (Homo sapiens, UniProt Q9Y6Y9); assay: Co-immunoprecipitation with Flag-tagged wild-type MD-2 in HEK293 cells; type: binding; conditions: Myc-tagged protein with Flag-tagged MD-2, co-immunoprecipitation
T1 construct: expressed in transfected cells; host or cells: HEK293
T1 sequence (Q9Y6Y9 19-160): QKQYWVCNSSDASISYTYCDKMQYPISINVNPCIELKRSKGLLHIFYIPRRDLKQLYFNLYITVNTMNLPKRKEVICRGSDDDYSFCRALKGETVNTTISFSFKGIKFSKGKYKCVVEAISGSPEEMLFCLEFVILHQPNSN
Description: (A) HEK293 cells were transiently transfected with plasmids encoding for Flag-tagged MD-2 (lanes 1-4) in combination with either a Myc-tagged MD-2 (lanes 1 and 3) or a Myc-tagged MD-2s (lanes 2 and 4) expressing plasmid. Co-immunoprecipitation experiments were then performed using an anti-Flag antibody (lanes 3-4) or an IgG isotype control antibody (lane 1-2). Samples were fractionated by SDS-PAGE and immunoblotting with an anti-Myc antibody was performed. (B) Structural analysis of MD-2. Structural features representing the TLR4 binding sites (red); the ligand contacts (dark blue); the ligand binding pocket (light blue) and the TLR4 secondary contacts (pink) are illustrated. The residues deleted in MD-2s (yellow) are also shown. (C) HEK293 cells were transiently transfected with plasmids encoding for Myc-tagged MD-2 (lanes 3 and 4) or a Myc-tagged MD-2s (lanes 5 and 6) expressing plasmid and treated with LPS-biotin as indicated. Co-immunoprecipitation experiments were then performed using an anti-Myc antibody. […]
HEK 293 cells were seeded into 100 mm dishes (1.5×10^6) 24 h prior to transfection. […] For immunoblotting, primary antibodies were detected using horseradish peroxidase-conjugated secondary antibodies, followed by enhanced chemiluminescence (Amersham Biosciences). […]

[1] = Biotin-LPS binding, immunoprecipitation from culture supernatants; conditions: culture supernatants incubated with biotin-LPS, anti-Myc immunoprecipitation
Description: (A) HEK293 cells were transiently transfected with plasmids encoding for Flag-tagged MD-2 (lanes 1-4) in combination with either a Myc-tagged MD-2 (lanes 1 and 3) or a Myc-tagged MD-2s (lanes 2 and 4) expressing plasmid. Co-immunoprecipitation experiments were then performed using an anti-Flag antibody (lanes 3-4) or an IgG isotype control antibody (lane 1-2). Samples were fractionated by SDS-PAGE and immunoblotting with an anti-Myc antibody was performed. (B) Structural analysis of MD-2. Structural features representing the TLR4 binding sites (red); the ligand contacts (dark blue); the ligand binding pocket (light blue) and the TLR4 secondary contacts (pink) are illustrated. The residues deleted in MD-2s (yellow) are also shown. (C) HEK293 cells were transiently transfected with plasmids encoding for Myc-tagged MD-2 (lanes 3 and 4) or a Myc-tagged MD-2s (lanes 5 and 6) expressing plasmid and treated with LPS-biotin as indicated. Co-immunoprecipitation experiments were then performed using an anti-Myc antibody. Samples were fractionated by SDS-PAGE and immunoblotting with an anti-biotin (upper panel) and anti-Myc antibody (lower panel) were performed.
To address this possibility, HEK293 cells were transiently transfected with plasmids encoding either MD-2 or MD-2s. Culture supernatants were then incubated with biotin-LPS and Myc-tagged proteins were immunoprecipitated.

TLR4-expressing cells = assay: Surface staining of TLR4-mCitrine HEK293T cells (flow cytometry, confocal imaging); type: cell-based, human; conditions: myc-tagged protein transfected into TLR4-mCitrine HEK293T cells
Source text: HEK293T cells stably expressing fluorescent TLR4-mCitrine were transiently transfected with myc-tagged wild-type MD-2 or MD-2s and surface-stained with anti-myc antibody. (a) Cells analyzed by flow cytometry were gated to select single cells and the TLR4-positive population. Anti-myc staining of TLR4-mCitrine positive cells expressing MD-2 (top panel, thick line) or MD-2s (middle panel, thick line) and untransfected cells (thin line) is shown. […] Co-localization of TLR4 and MD-2 isoforms on the cell surface is visualized in yellow.
HEK293T cells were retrovirally transduced to generate a cell line stably expressing TLR4-mCitrine. TLR4-mCitrine cells in 12-well dishes were transfected with 300 ng of plasmid encoding myc-tagged MD2 or MD2S using GeneJuice lipofection reagent (Novagen) and cultured overnight. Cells were dislodged by scraping, washed once with cold PBS and incubated with a 1:50 dilution of anti-myc Alexa 647-conjugated antibody (AbD Serotec) at 4° C. for 30 minutes. Cells were washed four times with PBS for and fluorescence was assessed with an LSR II flow cytometer (BD Biosciences) running FACS Diva software (BD Biosciences). Data was processed using FlowJo software v8.6.3 (Tree Star).
TLR4-mCitrine cells were cultured on glass-bottom confocal dishes (MatTek) coated with collagen. […]

Interaction with wild-type MD-2 (MD-2): can homodimerise
Binding of secreted protein to LPS [1]: bound readily to LPS
Molecule: MD-2: full-length human wild-type MD-2, co-receptor of TLR4 [reference compound]
Binding to the surface of TLR4-expressing cells (TLR4-expressing cells): bind to the surface of TLR4-expressing cells

B1: MD-2s: alternatively spliced isoform of human MD-2 lacking exon 2, with D38G substitution; expressed and secreted protein sequences in Table 1 (protein, listed as Homo sapiens)
chain 1: MLPFLFFSTLFSSIFTEAQKQYWVCNSSDASISYTYCGRDLKQLYFNLYITVNTMNLPKRKEVICRGSDDDYSFCRALKGETVNTTISFSFKGIKFSKGKYKCVVEAISGSPEEMLFCLEFVILHQPNSN
chain 2: EAQKQYWVCNSSDASISYTYCGRDLKQLYFNLYITVNTMNLPKRKEVICRGSDDDYSFCRALKGETVNTTISFSFKGIKFSKGKYKCVVEAISGSPEEMLFCLEFVILHQPNSN
Interaction with wild-type MD-2 (MD-2): associates with wild-type MD-2
Binding of secreted protein to LPS [1]: interaction between secreted MD-2s and LPS was also detected
Binding to the surface of TLR4-expressing cells (TLR4-expressing cells): bind to the surface of TLR4-expressing cells
